Experimental data from patent US20080044436A1, “Method for Screening and Compositions for Treating Cancers” (priority 2004, published 2008).

Tests used:
[1] = tested on: proximal Sp1 response element of the p21 and p27 promoters; assay: Chromatin immunoprecipitation with anti-TReP-132 antibody in T47-D cells; assay type: cell-based, human; details: DNA from progesterone-treated vs untreated T47-D cells
Experimental: FIG. 14C: Chromatin was from T47-D cells treated or not with […] progesterone. IPs were carried out with anti-TReP-132 antibodies ([…]). Controls were DNA-free PCR products (column 1, H2O), PCR products of unprecipitated genomic DNA (columns 2 and 3, input), immunoprecipitations with no antibody (columns 4 and 5, no Ab) or with irrelevant antibody (columns 6 and 7, anti-HA). The extracted DNA was amplified using the same primers as in FIG. 13C.
HTO cells incubated in the presence of Dox or T47-D cells were grown to 70% confluence in petri dishes (150 mm diameter). For HTO cells, doxycycline was removed from half of the dishes 48 hours before lysis. T47-D cells were incubated with 30 nM progesterone or with ethanol containing 0.2% BSA-RPMI for 2.5 hours before lysis. Cell lysates were then sonicated on ice, 15 times for 15 seconds at 45 second intervals. A volume of lysate corresponding to 4×10^6 cells was immunoprecipitated by using 4 μg of antibody (indicated earlier) and an anti-HA antibody as negative control. The same volume was set aside for later purification of genomic DNA. […]

cyclin D1/CDK6 = assay: In vitro kinase assay of immunoprecipitated cyclin D1/CDK6 (pRb substrate); assay type: biochemical, human; details: TReP-132 induced for 48 hours in HTO-GFP/TReP-132 cells
Description: FIG. 9A: Kinase activities of each immunoprecipitated cyclin or CDK were quantified using pRb as substrate to measure cyclin D1/CDK6 activity, or histone H1 to measure cyclin A/CDK2 activity. The levels of phosphorylation of histone H1 or pRb in induced HTO cells (HeLa Tet Off) are expressed in relation to the levels in non-induced HTO cells (corresponding to level 1.0).
Cells were washed twice with cold PBS (Phosphate Buffered Saline), then harvested either in cold RIPA buffer (1×PBS, 1% Nonidet P-40, 0.5% sodium deoxycholate, 0.1% SDS, phosphatase and protease inhibitors) for co-immunoprecipitation analysis, or in lysis buffer (50 mM Tris, pH 8.0, 0.1% IGEPAL (Sigma)) for kinase assays. […] The blots were then visualized with ECL reagent and quantified with SCANWISE and Perfect-IMAGE V-5.3 software (CLARA VISION, France).
The kinase activities on histone H1 or Rb protein in the immunoprecipitates were measured as follows: the immunoprecipitates were first washed once with 1 ml of assay buffer (50 mM Tris-HCl, pH 7.4, 10 mM MgCl2, 1 mM dithiothreitol (DTT)), then resuspended in 20 μl of assay buffer containing 1 mg/ml casein (Sigma) and 1 μg of histone H1 or Rb protein (769) (sc-4112) as substrate. […]
The reaction was stopped by addition of 15 μl of electrophoresis buffer (3×). […] Phosphorylated Rb and histones were quantified by densitometry.

pRb = assay: Western blot of pRb phosphorylation in HTO cells; assay type: cell-based, human; details: HTO-GFP/TReP-132 cells after Dox removal, almost undetectable at 72 hours
Experimental: FIG. 9B: Protein extracts (20 μg) of HTO cells expressing GFP or GFP and TReP-132 under the control of doxycycline, incubated or not with dox for the indicated times, were analyzed by western blot using anti-pRb antibodies directed against all pRb forms (hyperphopshorylated, phosphorylated and hypophosphorylated) or only against pRb phosphorylated at Ser 780, a target residue of cyclin D1/CDK4.
Cells were washed twice with cold PBS (Phosphate Buffered Saline), then harvested either in cold RIPA buffer (1×PBS, 1% Nonidet P-40, 0.5% sodium deoxycholate, 0.1% SDS, phosphatase and protease inhibitors) for co-immunoprecipitation analysis, or in lysis buffer (50 mM Tris, pH 8.0, 0.1% IGEPAL (Sigma)) for kinase assays. The lysates were incubated for 30 min on ice and cell debris was eliminated by centrifugation. The extracts were then aliquoted and stored at −80° C. For western blot analysis, RIPA or lysate buffer was used. For immunoprecipitations, whole cell lysates (1 mg) in RIPA buffer were preincubated with 0.1 μg of mouse or rabbit IgG and 20 μl of protein A-Sepharose beads (Amersham Biosciences, Uppsala, Sweden) for 30 min at 4° C. […] The blots were then visualized with ECL reagent and quantified with SCANWISE and Perfect-IMAGE V-5.3 software (CLARA VISION, France).

p16^INK4 gene = assay: RNase protection assay of CDKI transcription in HeLa cells, p16; assay type: cell-based, human; details: HeLa Tet-off cells, doxycycline removed

Row | Molecule | TReP-132 binding to proximal Sp1 response element of p21 and p27 promoters [1] | in vitro kinase activity of cyclin D1/CDK6 (cyclin D1/CDK6) | phosphorylated pRb (ppRb) level (pRb) | p16 gene transcription (p16^INK4 gene)
1 | CC(=O)[C@H]1CC[C@H]2[C@@H]3CCC4=CC(=O)CC[C@]4(C)[C@H]3CC[C@]12C [progesterone, reference compound] | much more pronounced | – | – | –
2 | TReP-132: Transcriptional Regulating Protein of 132 kDa, polypeptide comprising SEQ ID NO: 2; here expressed in cells from vectors (protein) MGDQQLYKTNHVAHGSENLFYQQPPLGVHSGLNHNYGNAVTGGGMDAPQASPISPHFPQDTRDGLGLPVGSKNLGQMDTSRQGGWGSHAGPGNHVQLRGNLANSNMMWGAPAQAEPTDGYQYTYSQASEIRTQKLTSGVLHKLDSFTQVFANQNLRIQVNNMAQVLHTQSAVMDGAPDSALRQLLSQKPMEPPAPAIPSRYQQVPQQPHPGFTGGLSKPALQVGQHPTQGHLYYDYQQPLAQVPVQGGQPLQAPQMLSQHMQQMQQHQYYPPQQQQQAGQQRISMQEIQTQPQQIRPSQPQPPPQQQQPQQLQLQQRQGSMQIPQYYQPQPMMQHLQEQQQQQMHLQPPSYHRDPHQYTPEQAHTVQLIPLGSMSQYYYQEPQQPYSHPLYQQSHLSQHQQREDSQLKTYSSDRQAQAMLSSHGDLGPPDTGMGDPASSDLTRVSSTLPHRPLLSPSGIHLNNMGPQHQQLSPSAMWPQMHLPDGRAQPGSPESSGQPKGAFGEQFDAKNKLTCSICLKEFKNLPALNGHMRSHGGMRASPNLKQEEGEKVLPPQPQPPLPPPPPPPPPPQLPPEAESLTPMVMPVSVPVKLLPPKPSSQGFTNSTVAAPSARDKPASSMSDDEMPVLEIPRKHQPSVPKAEEPLKTVQEKKKFRHRPEPLFIPPPPSYNPNPAASYSGATLYQSQLRSPRVLGDHLLLDPTHELPPYTPPPMLSPVRQGSGLFSNVLISGHGPGAHPQLPLTPLTPTPRVLLCRSNSIDGSNVTVTPGPGEQTVDVEPRINIGLRFQAEIPELQDISALAQDTHKATLVWKPWPELENHDLQQRVENLLNLCCSSALPGGGTNSEFALHSLFEAKGDVMVALEMLLLRKPVRLKCHPLANYHYAGSDKWTSLERKLFNKALATYSKDFIFVQKMVKSKTVAQCVEYYYTWKKIMRLGRKHRTRLAEIIDDCVTSEEEEELEEEEEEDPEEDRKSTKEEESEVPKSPEPPPVPVLAPTEGPPLQALGQPSGSFICEMPNCGAVFSSRQALNGHARIHGGTNQVTKARGAIPSGKQKPGGTQSGYCSVKSSPSHSTTSGETDPTTIFPCKECGKVFFKIKSRNAHMKTHRQQEEQQRQKAQKAAFAAEMAATIERTTGPVGAPGLLPLDQLSLIKPIKDVDILDDDVVQQLGGVMEEAEVVDTDLLLDDQDSVLLQGDAEL | – | reduced | marked reduction | induction
